Source: the RNAGym collection of RNA variant scans (doi:10.7554/elife.80360)

B1: HDV Ribozyme (parent)
chain: GGCCGGCAUGGUCCCAGCCUCCUCGCUGGCGCCGGCUGGGCAACAUUCCGAGGGGACCGUCCCCUCGGUAAUGGCGAAUGGGACCCA

Variants of: B1
Assay: self-cleavage, relative activity (ratio to wild type); higher = more cleavage; co-transcriptional
With C18G C44U the self-cleavage was 0.0426.
Variant C18G C44A has a self-cleavage of 0.
C18G G55U gave a self-cleavage of 0.0811.
Work on C18A G54U yielded a self-cleavage of 0.135.
In the case of C18A G54A, the self-cleavage is reported as 0.0779.
Variant C18A U47C has a self-cleavage of 0.0536.
For C18G A83G, the self-cleavage was 0.0707.
C18G A83C showed a self-cleavage of 0.192.
C18G A45C gave a self-cleavage of 0.
For C18G A45U, the self-cleavage was 0.217.
In the case of C18A U46C, the self-cleavage is reported as 0.095.
Variant C18A U46G has a self-cleavage of 0.128.
With C18G A43C the self-cleavage was 0.332.
With C18G A43G the self-cleavage was 0.145.
With C18G C36U the self-cleavage was 0.0852.
Work on C18G C36G yielded a self-cleavage of 0.
In the case of C18G C36A, the self-cleavage is reported as 0.095.
For C18G U46A, the self-cleavage was 0.145.
Work on C18G U46G yielded a self-cleavage of 0.0692.
C18G G82A gave a self-cleavage of 0.0462.
With C18A G81C the self-cleavage was 0.163.
Variant C18A G81U has a self-cleavage of 0.0817.
For C18A G81A, the self-cleavage was 0.0755.
C18G A78U gave a self-cleavage of 0.0723.
C18G C33U showed a self-cleavage of 0.128.
C18U A42G showed a self-cleavage of 0.151.
With C18U A42U the self-cleavage was 0.0627.
C18G C41A showed a self-cleavage of 0.196.
C18U A78C gave a self-cleavage of 0.185.
C18U showed a self-cleavage of 0.732.
Work on C18G yielded a self-cleavage of 0.131.
Work on C18G G74A yielded a self-cleavage of 0.0449.
With C18G G74C the self-cleavage was 0.142.
For C18G G74U, the self-cleavage was 0.116.
C18U C33U gave a self-cleavage of 0.463.
Work on C18G U27G yielded a self-cleavage of 0.128.
C18U C44A gave a self-cleavage of 0.0978.
C18G C62A showed a self-cleavage of 0.113.
C18A U20G showed a self-cleavage of 0.249.
Variant C18A U20C has a self-cleavage of 0.
With C18A G50A the self-cleavage was 0.23.
Variant C18A G50C has a self-cleavage of 0.219.
C18A G50U gave a self-cleavage of 0.197.
Variant C18U A51U has a self-cleavage of 0.701.
C18U C32A gave a self-cleavage of 0.166.
In the case of C18G C24A, the self-cleavage is reported as 0.0755.
C18G C24U gave a self-cleavage of 0.107.
C18G C24G gave a self-cleavage of 0.0504.
C18G A56G showed a self-cleavage of 0.
In the case of C18G A56U, the self-cleavage is reported as 0.138.
C18G G25A showed a self-cleavage of 0.0504.
Work on C18G G25C yielded a self-cleavage of 0.222.
In the case of C18A G82U, the self-cleavage is reported as 0.0723.
C18G G68A showed a self-cleavage of 0.0504.
Work on C18G G68U yielded a self-cleavage of 0.0978.
C18G G68C showed a self-cleavage of 0.119.
For C18U C36G, the self-cleavage was 0.142.
C18G C58A gave a self-cleavage of 0.0573.
Work on C18G G53U yielded a self-cleavage of 0.332.
C18G A77U showed a self-cleavage of 0.
Variant C18G A87C has a self-cleavage of 0.104.
Work on C18G G35A yielded a self-cleavage of 0.156.
C18G G35U showed a self-cleavage of 0.0415.
C18A G73U showed a self-cleavage of 0.0941.
In the case of C18A U69G, the self-cleavage is reported as 0.232.
With C18G C21G the self-cleavage was 0.175.
C18G C21U showed a self-cleavage of 0.128.
With C18G C66A the self-cleavage was 0.0437.
Work on C18U A83U yielded a self-cleavage of 0.243.
C18G G34C showed a self-cleavage of 0.104.
Work on C18G G34U yielded a self-cleavage of 0.
For C18U A71G, the self-cleavage was 0.504.
For C18G G38A, the self-cleavage was 0.0978.
Work on C18G A42U yielded a self-cleavage of 0.138.
For C18G A42G, the self-cleavage was 0.115.
Work on C18G A42C yielded a self-cleavage of 0.
Variant C18G G67U has a self-cleavage of 0.101.
Work on C18G G67C yielded a self-cleavage of 0.203.
C18G C49U showed a self-cleavage of 0.138.
For C18G G52A, the self-cleavage was 0.156.
C18G G29A showed a self-cleavage of 0.217.
Variant C18G G29U has a self-cleavage of 0.601.
C18A U65G showed a self-cleavage of 0.19.
Variant C18U A43U has a self-cleavage of 0.138.
C18A G53A gave a self-cleavage of 0.0652.
With C18A G40U the self-cleavage was 0.0631.
C18U C21G showed a self-cleavage of 0.151.
For C18G C30G, the self-cleavage was 0.222.
For C18U A45C, the self-cleavage was 0.0755.
C18U A45G gave a self-cleavage of 0.306.
With C18A U60G the self-cleavage was 0.
C18A U60A gave a self-cleavage of 0.135.
For C18A U60C, the self-cleavage was 0.
Work on C18G U23A yielded a self-cleavage of 0.
C18G U23C gave a self-cleavage of 0.227.
C18G U37A showed a self-cleavage of 0.111.
In the case of C18G G39U, the self-cleavage is reported as 0.0554.
In the case of C18U C41G, the self-cleavage is reported as 0.0314.
Variant C18A U27A has a self-cleavage of 0.131.
For C18G C19A, the self-cleavage was 0.119.
C18G C84A showed a self-cleavage of 0.095.
With C18G U72G the self-cleavage was 0.
Work on C18G U72C yielded a self-cleavage of 0.
C18A U72G gave a self-cleavage of 0.19.
For C18A U72C, the self-cleavage was 0.0437.
In the case of C18A G39C, the self-cleavage is reported as 0.0755.
Variant C18A G39U has a self-cleavage of 0.0369.
Variant C18G U20C has a self-cleavage of 0.
For C18G U20G, the self-cleavage was 0.185.
With C18A G76U the self-cleavage was 0.228.
In the case of C18A G76C, the self-cleavage is reported as 0.14.
C18A G68C showed a self-cleavage of 0.212.
C18A G68A showed a self-cleavage of 0.237.
In the case of C18G C48G, the self-cleavage is reported as 0.175.
C18G C48A gave a self-cleavage of 0.123.
For C18A G74A, the self-cleavage was 0.0674.
C18A G74U showed a self-cleavage of 0.0528.
In the case of C18A G74C, the self-cleavage is reported as 0.0791.
In the case of C18G G40C, the self-cleavage is reported as 0.0852.
C18G G40A gave a self-cleavage of 0.175.
C18G G40U gave a self-cleavage of 0.0489.
In the case of C18U A77U, the self-cleavage is reported as 0.0678.
Work on C18U A77C yielded a self-cleavage of 0.342.
Work on C18U A77G yielded a self-cleavage of 0.623.
C18G U65C showed a self-cleavage of 0.175.
C18G G31C gave a self-cleavage of 0.0449.
For C18U C22G, the self-cleavage was 0.0462.
C18U C22A showed a self-cleavage of 0.27.
For C18U C24A, the self-cleavage was 0.123.
Variant C18U C24G has a self-cleavage of 0.0665.
Work on C18G A70G yielded a self-cleavage of 0.161.
Work on C18G A70U yielded a self-cleavage of 0.111.
With C18G G73A the self-cleavage was 0.
C18G C86G showed a self-cleavage of 0.0831.
For C18G C61A, the self-cleavage was 0.222.
Variant C18G C61G has a self-cleavage of 0.219.
With C18A U79C the self-cleavage was 0.117.
In the case of C18A U79A, the self-cleavage is reported as 0.138.
C18A U79G gave a self-cleavage of 0.0639.
With C18G U60G the self-cleavage was 0.0791.
C18A G59A gave a self-cleavage of 0.228.
With C18A G59U the self-cleavage was 0.113.
For C18A G55A, the self-cleavage was 0.0314.
With C18G A51C the self-cleavage was 0.208.
C18G A51U gave a self-cleavage of 0.0489.
With C18G A51G the self-cleavage was 0.
C18U C26G gave a self-cleavage of 0.869.
C18G U79G showed a self-cleavage of 0.133.
C18U C30A showed a self-cleavage of 0.156.
For C18U C30G, the self-cleavage was 0.0583.
C18G U47G showed a self-cleavage of 0.256.
With C18G G81C the self-cleavage was 0.
C18G G81A gave a self-cleavage of 0.277.
Work on C18G C63U yielded a self-cleavage of 0.0386.
C18G C64A gave a self-cleavage of 0.
Work on C18A G80C yielded a self-cleavage of 0.
Variant C18A G80U has a self-cleavage of 0.051.
C18A G80A showed a self-cleavage of 0.0963.
C18G G80A gave a self-cleavage of 0.0563.
Work on C18G G80U yielded a self-cleavage of 0.0621.
For C18G G28C, the self-cleavage was 0.0573.
For C18G G28A, the self-cleavage was 0.0346.
In the case of C18G C22A, the self-cleavage is reported as 0.172.
Work on C18G C32U yielded a self-cleavage of 0.172.
With C18G C32A the self-cleavage was 0.166.
In the case of C18G G76U, the self-cleavage is reported as 0.227.
Variant C18G G76A has a self-cleavage of 0.111.
